This note sets out measurements from US20170313776A1 (SORRENTO THERAPEUTICS, published 2017).

The EC50 is the midpoint of the concentration-response curve. Broadly, the Kd is a measure of binding affinity in units of concentration. Usually koff stands for a measure of how fast the partners let go of each other. The term kon denotes a measure of how fast the partners come together.

Assay [1] deals with T1, human PD-1 expressed on cells (human, UniProt Q15116 25-288).
T1 construct: whole, on cells; One entry for cell-surface PD-1; also called CHO-PD-1 cells; Jurkat PD-1 cells
T1 sequence (Q15116 25-288): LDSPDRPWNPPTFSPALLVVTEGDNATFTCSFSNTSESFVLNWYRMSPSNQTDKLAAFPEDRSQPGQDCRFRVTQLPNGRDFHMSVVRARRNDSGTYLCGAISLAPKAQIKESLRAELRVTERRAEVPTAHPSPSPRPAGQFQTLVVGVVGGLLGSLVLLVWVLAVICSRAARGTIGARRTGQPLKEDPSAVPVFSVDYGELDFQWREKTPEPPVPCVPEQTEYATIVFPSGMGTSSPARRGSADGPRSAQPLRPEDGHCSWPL
In words: flow cytometry on CHO-PD-1 cells. From the text: (§1) This example illustrates in vitro data for cellular binding EC50 measurements and cell binding specificity. […] The experimental procedure was as follows: CHO-PD-1 cells and CHO-PD-L1 cells were obtained by stably transfecting CHO-K1 cells with PD-1 cDNA ORF clone (Origene RG210364) and PD-L1 cDNA ORF clone (Origene RG213071) respectively. After 2 weeks of Neomycin selection, clones were isolated by Fluorescence-activated cell sorting (FACS) and further expanded. […] For cell binding assays, 50,000 CHO-PD-1 cells, CHO-PD-L1 cells, and ES-2 cells were aliquoted into the wells of a 96-well, v-bottom plate in 100 μl FACS Buffer (PBS+2% FBS). A twelve point, 3× dilution curve of each anti-PD-1 antibody was made in FACS Buffer starting at 50 μg/ml (3.33×10⁻⁷M). Cells were spun down, washed twice with FACS Buffer, and then resuspended in 25 μl of antibody solution in triplicate. After 0.5 hr incubation, cells were washed 1× with FACS Buffer and resuspended in 50 μl PE-conjugated, goat anti-human IgG (γ-chain specific) secondary antibody (Southern Biotech Cat #2040-09). Cells were further incubated for 0.5 hr and then washed 1× with FACS Buffer. Cells were resuspended in 25 μl FACS Buffer and the median fluorescence intensity in the FL2-H channel was determined using the Intellicyt HTFC flow cytometer. Data was analyzed and plotted in Graph Pad Prism using non-linear regression fit.
(§2) Data points on the graph are shown as the median fluorescence intensity (MFI) of positively labeled cells depending on the antibody concentration +/− Std Error.
A general note: Flow cytometry measures light scatter and fluorescence of single cells or particles in a stream.

The target in assay [2] is T2, PD-L1 expressed on CHO-PD-L1 cells (UniProt Q9NZQ7 19-290, limits assumed).
T2 construct: whole, on cells
T2 sequence (Q9NZQ7 19-290 limits assumed): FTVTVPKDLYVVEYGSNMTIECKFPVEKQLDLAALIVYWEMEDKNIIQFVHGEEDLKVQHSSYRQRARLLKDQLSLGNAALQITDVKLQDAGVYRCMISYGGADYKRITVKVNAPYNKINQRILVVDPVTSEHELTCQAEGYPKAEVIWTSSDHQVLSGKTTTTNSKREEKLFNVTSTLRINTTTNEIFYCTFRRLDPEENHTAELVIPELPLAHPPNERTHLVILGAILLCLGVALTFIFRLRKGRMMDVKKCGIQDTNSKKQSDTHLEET
In words: flow cytometry on CHO-PD-L1 cells.
Excerpt: as §1, §2

The target in another assay is T3, recombinant mouse PD-1 (mouse, UniProt Q02242 25-167, limits assumed).
T3 sequence (looked up): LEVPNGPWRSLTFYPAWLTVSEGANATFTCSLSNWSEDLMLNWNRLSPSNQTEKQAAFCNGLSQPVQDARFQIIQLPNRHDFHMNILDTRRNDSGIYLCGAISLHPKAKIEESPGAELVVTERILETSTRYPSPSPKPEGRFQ
In words: ELISA, detection with anti-human IgG4 heavy chain or anti-human lambda light chain. On the technique in general: In an ELISA, binding on a coated surface is turned into a signal by an enzyme label.

Assay [3] addresses T4, recombinant cynomolgus PD-1 (cynomolgus).
T4 construct: also called cyno PD-1
Put plainly: ELISA on recombinant cynomolgus PD-1.

For assay [4], the target named is T5, recombinant human PD-1 protein (human, UniProt Q15116 25-167, limits assumed).
T5 construct: also called monomeric recombinant human PD-1
T5 sequence (Q15116 25-167 limits assumed): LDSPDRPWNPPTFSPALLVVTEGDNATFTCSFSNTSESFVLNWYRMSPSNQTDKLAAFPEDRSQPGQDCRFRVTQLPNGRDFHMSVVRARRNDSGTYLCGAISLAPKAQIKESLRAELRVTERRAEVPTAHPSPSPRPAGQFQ
Put plainly: Biacore, antibody captured on protein A, monomeric recombinant human PD-1 as analyte. (SPR reads the build-up and loss of mass on a sensor chip optically.)

The target in assay [5] is T5, recombinant human PD-1 protein. Put plainly: ELISA on recombinant human PD-1.
Assay [6] addresses T6, recombinant human PD1 (His-tagged) protein (human, UniProt Q15116 25-167, limits assumed).
T6 construct: not shown: His tag
In words: SPR, antibody captured on anti-human Fc, PD1/His as analyte, 1:1 Langmuir fit. How it is done:
Anti-human Fc antibody was immobilized on CMS sensor chip with approximately 1000 RU. Antibodies (about 10 μg/ml) were captured for 60 s at a flow rate 10 μl/min.PD1/His was serially diluted in running buffer (HBS-EP). All measurements were conducted with a flow rate of 30 μL/min. Surfaces were regenerated with 3M MgCl₂ for 60 s. A 1:1 (Langmuir) binding model was used to fit the data.

Assay [7] has as its target T1, human PD-1 expressed on cells. Put plainly: flow cytometry on Jurkat T cells stably expressing human PD-1.
A further assay deals with T7, human ICOS (recombinant) (human, UniProt Q9Y6W8 21-140, limits assumed).
T7 sequence (looked up): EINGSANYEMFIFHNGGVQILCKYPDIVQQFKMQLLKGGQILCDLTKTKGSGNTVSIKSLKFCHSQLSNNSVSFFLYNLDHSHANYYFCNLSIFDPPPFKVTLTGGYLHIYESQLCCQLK
Put plainly: ELISA on coated recombinant protein, one antibody concentration (not given).

For assay [8], the target named is human CTLA-4 (recombinant) (human, UniProt P16410 36-161, limits assumed). The assay is described as above.
human CTLA-4 (recombinant), sequence (P16410 36-161 limits assumed): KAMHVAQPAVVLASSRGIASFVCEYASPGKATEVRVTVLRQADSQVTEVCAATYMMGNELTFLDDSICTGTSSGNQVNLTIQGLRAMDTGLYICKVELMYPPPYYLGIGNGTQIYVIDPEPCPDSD
For another assay, the target named is human CD28 (recombinant) (human, UniProt P10747 19-152). The assay is described as above.
Assay [9] deals with T1, human PD-1 expressed on cells. Put plainly: flow cytometry on anti-CD3-activated PBMC. As to the method: (§3) This example illustrates in vitro data for cellular binding EC50 measurements. […] The experimental procedure is as follows. Peripheral blood mononuclear cells (PBMC) were added to the wells of a 24 well plate and stimulated anti-CD3 (3 ng/ml). After three days of culture the cells were harvested and added to the wells of wells of a 96-well, v-bottom plate in 100 μl FACS Buffer (PBS+2% FBS). A twelve point, 3× dilution curve of each anti-PD-1 antibody was made in FACS Buffer starting at 10 μg/ml (0.6×10⁻⁷M). Cells were spun down, washed twice with FACS Buffer, and then resuspended in 25 μl of antibody solution in triplicate. After 0.5 hr incubation, cells were washed 1× with FACS Buffer and resuspended in 50 μl PE-conjugated, goat anti-human IgG (γ-chain specific) secondary antibody (Southern Biotech Cat #2040-09). Cells were further incubated for 0.5 hr and then washed 1× with FACS Buffer. Cells were resuspended in 25 μl FACS Buffer and the median fluorescence intensity in the FL2-H channel was determined using the Intellicyt HTFC flow cytometer. Data was analyzed and plotted in Graph Pad Prism using non-linear regression fit.

For assay [10] the target is unchanged. In words: flow cytometry on anti-CD3-activated PBMC. As to the method: as §3
This is another data set of the same source.

The target of assay [11] is T6, recombinant human PD1 (His-tagged) …. Put plainly: BIAcore, mAb captured on anti-human Fc, His-tagged human PD1 as analyte.

T6 sequence (Q15116 25-167 limits assumed): as the sequence (Q15116 25-167 limits assumed) above

B1: RG2H10 (IgG) (antibody, V domains shown)
VH: QVQLQQSGPGLVRPSQTLSLSCDISGDSVSSNSATWNWIRQSPSRGLEWLGRTFYRSKWYHDYALSVKSRITINPDTSKNQFSLQLNSVSPGDTAVYFCVREDIDGRLDYWGQGTLVTVSS
VL: QPVLTQPASVSGSPGQSITISCTGTSSDVGGYNYVSWYQQHPGKAPKLMIYDVSNRPSGVSNRFSGSKSGNTASLAITGLQSDDDADYYCSAWDDSLNADVFGGGTKLTVL
notes: Detected with anti-human IgG (gamma chain specific); also called PD1 RG2H10
In turn, B1 yielded an EC50 in [1] of 2.8 nM. In assay [2], the binding result is on record as “no binding (tested: 50 µg/ml (3.33×10^-7M) top concentration)”.

B2: RG4A6 (IgG) (antibody, V domains shown)
VH: EVQLVESGGGLVQPGGSLRLSCAASGFTFSSYWMHWVRQAPGKGLEWVSSISSSSSYIYYADSVKGRFTISRDNAKNSLYLQMNSLRAEDTAVYYCARDTLEYYGSGILENAMGYYGMDVWGQGTTVTVSS
VL: not shown
notes: Detected with anti-human IgG (gamma chain specific); also called PD1 RG4A6
B2 gave an EC50 in assay [1] of 0.779 nM. For the same molecule, the binding result in assay [2] was “no binding (tested: 50 µg/ml (3.33×10^-7M) top concentration)”.

B3: anti-PD-1 antibody RG1H10 (IgG, isotype not stated in the assay) (antibody, V domains shown)
VH: QVQLVQSGSELKKPGASVKISCKASGYIFSDNGVNWVRQAPGQGLEWMGWINTKIGNPTYAQGFTGRFVFSLDTSISTTYLQISSLQAGDTAVYYCAREHDYYYGMDVWGQGTTVTVSS
VL: QSALTQPPSASGSPGQSVTISCTGTSSDVGGYNYVSWYQHHPGKAPKLMIYEVSKRPSGVPDRFSGSKSAITASLTISGLLTEDEADYYCSAWDDSLNADVFGGGTKVTVL
notes: also called PD1 RG1H10
Take B3: the binding result with recombinant mouse PD-1 is given as “no binding”; in assay [2], “no binding (tested: 50 µg/ml (3.33×10^-7M) top concentration)”; in the assay with human ICOS (recombinant) it was “no binding”; in assay [8] it was “no binding”; with human CD28 (recombinant), “no binding”. The EC50 was 0.84 nM in assay [3], 0.0358 nM in assay [1], 0.391 nM in assay [5] and 25.8 nM in assay [7]. The Kd in assay [4] was determined as 3.2 nM; in assay [6] it was 0.802 nM. Moreover, the “fold affinity against competitor 3” value in [4] was around 10 fold. The Ka in [6] is 1.25e+09 M⁻¹. Further, in assay [6], the dissociation rate constant (koff) stood at 0.00104 s⁻¹. For the same molecule, in assay [6], the kon came to 1.3e+06 M⁻¹ s⁻¹. For the same molecule, the “fold maximal binding against competitor 1” value in assay [7] was around 2 fold lower.

B4: RG1H10 (IgG1) (antibody, V domains shown)
VH: QVQLVQSGSELKKPGASVKISCKASGYIFSDNGVNWVRQAPGQGLEWMGWINTKIGNPTYAQGFTGRFVFSLDTSISTTYLQISSLQAGDTAVYYCAREHDYYYGMDVWGQGTTVTVSS
VL: QSALTQPPSASGSPGQSVTISCTGTSSDVGGYNYVSWYQHHPGKAPKLMIYEVSKRPSGVPDRFSGSKSAITASLTISGLLTEDEADYYCSAWDDSLNADVFGGGTKVTVL
notes: IgG1; also called RG1H10 as immunoglobulin gamma 1
Turning to B4, a half-maximal response in assay [9] (EC50) required 0.67 nM. The molecule further gave an EC50 in assay [10] of 0.67 nM. In assay [11], the Kd came out at 1.3 nM, the koff worked out at 0.001 s⁻¹ and the kon was 750000 M⁻¹ s⁻¹.

B5: RG1H10 (IgG4 S228P) (antibody, V domains shown)
VH: QVQLVQSGSELKKPGASVKISCKASGYIFSDNGVNWVRQAPGQGLEWMGWINTKIGNPTYAQGFTGRFVFSLDTSISTTYLQISSLQAGDTAVYYCAREHDYYYGMDVWGQGTTVTVSS
VL: QSALTQPPSASGSPGQSVTISCTGTSSDVGGYNYVSWYQHHPGKAPKLMIYEVSKRPSGVPDRFSGSKSAITASLTISGLLTEDEADYYCSAWDDSLNADVFGGGTKVTVL
notes: also called RG1H10 as immunoglobulin gamma 4 with hinge mutation S228P
B5: the EC50 in [9] worked out at 0.047 nM. This molecule displayed an EC50 in [10] of 0.047 nM. In addition, in assay [11], the Kd worked out at 1.6 nM, the koff came to 0.0014 s⁻¹ and the kon stood at 880000 M⁻¹ s⁻¹.

B6: GA2 (IgG) (antibody, V domains shown)
VH: QVQLVQSGSELKKPGASVKISCKASGYIFSDNGVNWVRQAPGQGLEWMGWINTKIGNPTYAQGFTGRFVFSLDTSVSTTYLQISSLQAGDTAVYYCAREHDYYYGMDVWGQGTTVTVSS
VL: QPVLTQPPSASGTPGQRVTISCSGSSSNIGTNTVNWYQQVPGTAPKLLIHGNDQRPSGVPDRFSGSKSDTSASLAITGLQSDDDADYYCSAWDDSLNADVFGGGTKLTVL
notes: Detected with anti-human IgG (gamma chain specific); also called PD1 GA2
The molecule B6 registered an EC50 in assay [1] of 0.202 nM. In addition, the binding result in assay [2] is reported as “no binding (tested: 50 µg/ml (3.33×10^-7M) top concentration)”.

B7: SH-A4 (IgG) (antibody, V domains shown)
VH: QVQLVQSGSELKKPGASVKISCKASGYIFSDNGVNWVRQAPGQGLEWMGWINTKIGNPTYAQGFTGRFVFSLDTSVSTTYLQISSLQAGDTAVYYCAREHDYYYGMDVWGQGTTVTVSS
VL: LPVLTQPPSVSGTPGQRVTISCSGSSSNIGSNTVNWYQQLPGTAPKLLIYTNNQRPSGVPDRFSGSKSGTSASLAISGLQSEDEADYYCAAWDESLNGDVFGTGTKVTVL
notes: Detected with anti-human IgG (gamma chain specific); also called PD1 SHA4
In [1], B7 yielded an EC50 of 0.115 nM. For the same molecule, the binding result in assay [2] is recorded as “no binding (tested: 50 µg/ml (3.33×10^-7M) top concentration)”.

B8: H7 (IgG) (antibody, V domains shown)
VH: QVQLVQSGSELKKPGASVKISCKASGYIFSDNGVNWVRQAPGQGLEWMGWINTKIGNPTYAQGFTGRFVFSLDTSVSTTYLQISSLQAGDTAVYYCAREHDYYYGMDVWGQGTTVTVSS
VL: QSVLTQPASVSGSPGQSVTISCTGSSSDVGAYNFVSWYRQYPGKAPKLLIYEVNKRPSDVPDRFSGSKFGNTASLTVSGLQADDEADYYCSSYAGSTDVFGTGTKVTVL
notes: Detected with anti-human IgG (gamma chain specific); also called PD1 H7
In turn, B8 returned an EC50 in assay [1] of 0.223 nM. In addition, the binding result in [2] was “no binding (tested: 50 µg/ml (3.33×10^-7M) top concentration)”.

B9: RG1B3 (IgG) (antibody, V domains shown)
VH: QVQLVQSGAEVKKPGASVKVSCKASGYTFTSYGISWVRQAPGQGLEWMGWISAYNGNTNYAQKLQGRVTMTTDTSTSTAYMELRSLRSDDTAVYYCARGLYGDEDYWGQGTLVTVSS
VL: LPVLTQPPSVSEVPGQRVTISCSGGISNIGSNAVNWYQHFPGKAPKLLIYYNDLLPSGVSDRFSASKSGTSASLAISGLRSEDEADYYCAAWDDNLSAYVFATGTKVTVL
notes: Detected with anti-human IgG (gamma chain specific); also called PD1 RG1B3
On to B9, for which, in assay [1], the EC50 is 0.183 nM. For the same molecule, the binding result in assay [2] is listed as “no binding (tested: 50 µg/ml (3.33×10^-7M) top concentration)”.
